Laboratory results published in patent US20260097113A1 (Pfizer, published 2026).

B1: AM14 (trimeric prefusion specific antibody of the AM14 ELISA) (antibody, V domains shown)
VH: EVQLVESGGGVVQPGRSLRLSCAASGFSFSHYAMHWVRQAPGKGLEWVAVISYDGENTYYADSVKGRFSISRDNSKNTVSLQMNSLRPEDTALYYCARDRIVDDYYYYGMDVWGQGATVTVSS
VL: DIQMTQSPSSLSASVGDRVTITCQASQDIKKYLNWYHQKPGKVPELLMHDASNLETGVPSRFSGRGSGTDFTLTISSLQPEDIGTYYCQQYDNLPPLTFGGGTKVEIKR
notes: Antibody as used in the AM14 ELISA, detected with an HRP-labeled secondary antibody

Assays:
[1] = biological target: RSV A + RSV B bivalent composition (RSV subtype A; RSV subtype B); assay: AM14 Fab titration by SEC; Low-Fast cycle; 8 M 2-8°C
[2] = biological target: RSV A + RSV B bivalent composition (RSV subtype A; RSV subtype B); assay: AM14 Fab titration by SEC; High-Slow 2 cycle; 1 M 25°C
[3] = biological target: RSV A + RSV B bivalent composition (RSV subtype A; RSV subtype B); assay: AM14 Fab titration by SEC; High-Slow 2 cycle; 1 M 40°C
[4] = biological target: RSV A + RSV B bivalent composition (RSV subtype A; RSV subtype B); assay: AM14 Fab titration by SEC; High-Slow 2 cycle; 3 M 40°C
[5] = biological target: RSV A + RSV B bivalent composition (RSV subtype A; RSV subtype B); assay: AM14 Fab titration by SEC; Target cycle; 1 M 2-8°C (second value)
[6] = biological target: RSV A + RSV B bivalent composition (RSV subtype A; RSV subtype B); assay: AM14 Fab titration by SEC; Target cycle; 3 M 2-8°C (second value)
[7] = biological target: RSV A + RSV B bivalent composition (RSV subtype A; RSV subtype B); assay: AM14 Fab titration by SEC; High-Slow 1 cycle; 1 M 40°C (second value)
[8] = biological target: RSV A + RSV B bivalent composition (RSV subtype A; RSV subtype B); assay: AM14 Fab titration by SEC; High-Slow 2 cycle; 1 M 25°C (second value)
[9] = biological target: T1, RSV F protein of subtype A comprising a polypeptide of SEQ ID NO: 1 and a polypeptide of SEQ ID NO: 2 (RSV subtype A, UniProt P11209 137-513; P03420 26-109); assay: AM14 ELISA; F16 (pH 6, 0 mM NaCl, 0% sucrose); T0
T1 construct: Stabilized prefusion F trimer made of three F2-F1 heterodimers; Produced recombinantly in CHO cells; also called RSV A; RSVA
T1 chain 1: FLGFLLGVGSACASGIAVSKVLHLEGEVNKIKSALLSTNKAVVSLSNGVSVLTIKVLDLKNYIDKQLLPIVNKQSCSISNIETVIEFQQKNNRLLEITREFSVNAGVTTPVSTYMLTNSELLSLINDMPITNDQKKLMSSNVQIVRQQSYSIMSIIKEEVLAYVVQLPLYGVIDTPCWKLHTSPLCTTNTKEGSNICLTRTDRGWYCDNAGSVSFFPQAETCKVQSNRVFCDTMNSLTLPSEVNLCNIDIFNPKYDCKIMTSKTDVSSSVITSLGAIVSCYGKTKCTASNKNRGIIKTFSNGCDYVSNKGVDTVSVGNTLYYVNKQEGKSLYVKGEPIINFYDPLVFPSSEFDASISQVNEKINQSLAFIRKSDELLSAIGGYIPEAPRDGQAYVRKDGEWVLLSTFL
T1 chain 2: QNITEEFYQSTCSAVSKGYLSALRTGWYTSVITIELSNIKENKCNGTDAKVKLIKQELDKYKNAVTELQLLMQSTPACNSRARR

[10] = biological target: T1, RSV F protein of subtype A comprising a …; assay: AM14 ELISA; F8 (pH 7, 50 mM NaCl, 0% sucrose); T0
[11] = biological target: T1, RSV F protein of subtype A comprising a …; assay: AM14 ELISA; F7 (pH 6, 100 mM NaCl, 0% sucrose); T0
[12] = biological target: T1, RSV F protein of subtype A comprising a …; assay: AM14 ELISA; F2 (pH 8, 0 mM NaCl, 0% sucrose); 1 wk 5°C
[13] = biological target: T1, RSV F protein of subtype A comprising a …; assay: AM14 ELISA; F15 (pH 6, 0 mM NaCl, 9% sucrose); 2 wk 5°C
[14] = biological target: T1, RSV F protein of subtype A comprising a …; assay: AM14 ELISA; F16 (pH 6, 0 mM NaCl, 0% sucrose); 2 wk 25°C
[15] = biological target: T1, RSV F protein of subtype A comprising a …; assay: AM14 ELISA; F10 (pH 7, 50 mM NaCl, 4.5% sucrose); 1 wk 5°C
[16] = biological target: T1, RSV F protein of subtype A comprising a …; assay: AM14 ELISA; F5 (pH 6, 100 mM NaCl, 9.0% sucrose); 2 wk 5°C
[17] = biological target: T1, RSV F protein of subtype A comprising a …; assay: AM14 ELISA; F11 (pH 7, 50 mM NaCl, 9.0% sucrose); 1 wk 25°C
[18] = biological target: T1, RSV F protein of subtype A comprising a …; assay: AM14 ELISA; F13 (pH 7, 100 mM NaCl, 4.5% sucrose); 2 wk 5°C

Molecule	Prefusion Content (%) [1] [%]	Prefusion Content (%) [2] [%]	Prefusion Content (%) [3] [%]	Prefusion Content (%) [4] [%]	Prefusion Content (%) [5] [%]	Prefusion Content (%) [6] [%]	Prefusion Content (%) [7] [%]	Prefusion Content (%) [8] [%]	AM14 prefusion content (%), relative to standard [9] [%]	AM14 prefusion content (%), relative to standard [10] [%]	AM14 prefusion content (%), relative to standard [11] [%]	AM14 prefusion content (%), relative to standard [12] [%]	AM14 prefusion content (%), relative to standard [13] [%]	AM14 prefusion content (%), relative to standard [14] [%]	AM14 prefusion content (%), relative to standard [15] [%]	AM14 prefusion content (%), relative to standard [16] [%]	AM14 prefusion content (%), relative to standard [17] [%]	AM14 prefusion content (%), relative to standard [18] [%]
AM14 Fab	73	72	52	59	69	70	46	59	–	–	–	–	–	–	–	–	–	–
B1	–	–	–	–	–	–	–	–	80	100	88	86	84	76	93	76	91	75
